{"source": "paper PMC6030046", "about": "“Trapping of the transport-segment DNA by the ATPase domains of a type II topoisomerase” (Nature Communications, 2018)", "data": [{"biological_target": "Streptococcus pneumoniae topoisomerase IV ParC subunit, full length (Streptococcus pneumoniae) (UniProt P72525)", "test": "not given", "conditions": "not given", "units": {"Cleavage: ATP-independent quinolone-promoted DNA cleavage activity of topo IV reconstituted from ParC and ParE, relative to wild type": "%"}, "values": [{"molecule": "ParE K346Q, full length (from UniProt Q59961 1-647) (enzyme)", "Cleavage: ATP-independent quinolone-promoted DNA cleavage activity of topo IV reconstituted from ParC and ParE, relative to wild type": 100}, {"molecule": "ParE K291Q, full length (from UniProt Q59961 1-647) (enzyme)", "Cleavage: ATP-independent quinolone-promoted DNA cleavage activity of topo IV reconstituted from ParC and ParE, relative to wild type": 100}, {"molecule": "ParE R353Q, full length (from UniProt Q59961 1-647) (enzyme)", "Cleavage: ATP-independent quinolone-promoted DNA cleavage activity of topo IV reconstituted from ParC and ParE, relative to wild type": 100}, {"molecule": "ParE S268A, full length (from UniProt Q59961 1-647) (enzyme)", "Cleavage: ATP-independent quinolone-promoted DNA cleavage activity of topo IV reconstituted from ParC and ParE, relative to wild type": 100}, {"molecule": "ParE K281Q/D282A, full length (from UniProt Q59961 1-647) (enzyme)", "Cleavage: ATP-independent quinolone-promoted DNA cleavage activity of topo IV reconstituted from ParC and ParE, relative to wild type": 100}, {"molecule": "ParE R400Q, full length (from UniProt Q59961 1-647) (enzyme)", "Cleavage: ATP-independent quinolone-promoted DNA cleavage activity of topo IV reconstituted from ParC and ParE, relative to wild type": 100}, {"molecule": "ParE R321Q, full length (from UniProt Q59961 1-647) (enzyme)", "Cleavage: ATP-independent quinolone-promoted DNA cleavage activity of topo IV reconstituted from ParC and ParE, relative to wild type": 100}, {"molecule": "ParE K346Q/R353A, full length (from UniProt Q59961 1-647) (enzyme)", "Cleavage: ATP-independent quinolone-promoted DNA cleavage activity of topo IV reconstituted from ParC and ParE, relative to wild type": 100}, {"molecule": "ParE K313Q/E316Q, full length (from UniProt Q59961 1-647) (enzyme)", "Cleavage: ATP-independent quinolone-promoted DNA cleavage activity of topo IV reconstituted from ParC and ParE, relative to wild type": 100}, {"molecule": "ParE R353A, full length (from UniProt Q59961 1-647) (enzyme)", "Cleavage: ATP-independent quinolone-promoted DNA cleavage activity of topo IV reconstituted from ParC and ParE, relative to wild type": 100}, {"molecule": "Streptococcus pneumoniae topoisomerase IV ParE subunit, wild type, full length (from UniProt Q59961 1-647) (enzyme)", "Cleavage: ATP-independent quinolone-promoted DNA cleavage activity of topo IV reconstituted from ParC and ParE, relative to wild type": 100}, {"molecule": "ParE D269V, full length (from UniProt Q59961 1-647) (enzyme)", "Cleavage: ATP-independent quinolone-promoted DNA cleavage activity of topo IV reconstituted from ParC and ParE, relative to wild type": 100}, {"molecule": "ParE R396Q, full length (from UniProt Q59961 1-647) (enzyme)", "Cleavage: ATP-independent quinolone-promoted DNA cleavage activity of topo IV reconstituted from ParC and ParE, relative to wild type": 100}]}, {"biological_target": "the molecule itself", "test": "crystal structure; ParE44 co-crystallised with 14-mer duplex DNA 5'-…-3', 2 mM AMP-PNP, 10 mM MgCl2; sitting drop, 50 mM HEPES pH 7.0, 5 mM MgCl2, 25% PEG MME 550; through-hole DNA bound complex, space group C2, 2.83 Å", "conditions": "not given", "values": [{"molecule": "Streptococcus pneumoniae ParE44 ATPase domain (residues 1-402) (domain or fragment, UniProt Q59961 1-402, looked up, ParE subunit of topoisomerase IV, Streptococcus pneumoniae, UniProt Q59961, residues 1-402 (ATPase domain); Crystallised as a closed dimer with AMP-PNP, Mg2+ and duplex DNA; also called ParE ATPase domain; N-terminal ParE44; source: E. coli BL21 λDE3, purified (Ni-NTA)) MSKKEININNYNDDAIQVLEGLDAVRKRPGMYIGSTDGAGLHHLVWEIVDNAVDEALSGFGDRIDVTINKDGSLTVQDHGRGMPTGMHAMGIPTVEVIFTILHAGGKFGQGGYKTSGGLHGVGSSVVNALSSWLEVEITRDGAVYKQRFENGGKPVTTLKKIGTAPKSKTGTKVTFMPDATIFSTTDFKYNTISERLNESAFLLKNVTLSLTDKRTNEAIEFHYENGVQDFVSYLNEDKEILTPVLYFEGEDNGFQVEVALQYNDGFSDNILSFVNNVRTKDGGTHETGLKSAITKVMNDYARKTGLLKEKDKNLEGSDYREGLAAVLSILVPEEHLQFEGQTKDKLGSPLARPVVDGIVADKLTFFLMENGELASNLIRKAIKARDAREAARKARDESRNG", "binding result": "binds"}]}, {"biological_target": "T1, ParE44 (topoisomerase IV ParE ATPase domain) (Streptococcus pneumoniae, UniProt Q59961 1-402)", "test": "X-ray crystallography (1.97 A); AMP-PNP, Mg2+; side-bound outside the hole, two duplexes per dimer; Co-crystallization: protein:DNA 1:2.2, 10 mM MgCl2, 2 mM AMP-PNP, protein in 20 mM Tris-HCl pH 7.5, 100 mM NaCl, 1 mM 2-mercaptoethanol; 14-mer: 50 mM HEPES pH", "conditions": "protein: recombinant; tags: C-terminal 6xHis; chain copies: 2; blunt; self-complementary", "values": [{"molecule": "6-mer GCGCGC duplex (dsDNA) DNA 1: GCGCGC DNA 2: GCGCGC", "binding result": "binds"}]}, {"biological_target": "T1, ParE44 (topoisomerase IV ParE ATPase …)", "test": "X-ray crystallography (2.83 A); AMP-PNP, Mg2+; DNA kinked in the dimer hole, one duplex per dimer; putative intercalated AMP-PNP; Co-crystallization: protein:DNA 1:2.2, 10 mM MgCl2, 2 mM AMP-PNP, protein in 20 mM Tris-HCl pH 7.5, 100 mM NaCl, 1 mM 2-mercaptoethanol; 14-mer: 50 mM HEPES pH", "conditions": "protein: recombinant; tags: C-terminal 6xHis; chain copies: 2; blunt; self-complementary", "values": [{"molecule": "14-mer T-segment duplex (dsDNA) DNA 1: GCATATATATATGC DNA 2: GCATATATATATGC", "binding result": "binds"}]}]}
